According to publication PMC2527209:

Biological target: non-translating mammalian (canine) ribosome (canine)
Assay: co-sedimentation

stoichiometry N: 0.8
Substance: Sec61 complex (from UniProt P38377 1-476; P60467 1-96; P60058 1-68)
